Reference: article PMC4372080 (Nature, 2014)

Molecular target: T1, TmrA-A591C (Thermus thermophilus, UniProt Q72J05 1-600, A591C)
T1 sequence (looked up): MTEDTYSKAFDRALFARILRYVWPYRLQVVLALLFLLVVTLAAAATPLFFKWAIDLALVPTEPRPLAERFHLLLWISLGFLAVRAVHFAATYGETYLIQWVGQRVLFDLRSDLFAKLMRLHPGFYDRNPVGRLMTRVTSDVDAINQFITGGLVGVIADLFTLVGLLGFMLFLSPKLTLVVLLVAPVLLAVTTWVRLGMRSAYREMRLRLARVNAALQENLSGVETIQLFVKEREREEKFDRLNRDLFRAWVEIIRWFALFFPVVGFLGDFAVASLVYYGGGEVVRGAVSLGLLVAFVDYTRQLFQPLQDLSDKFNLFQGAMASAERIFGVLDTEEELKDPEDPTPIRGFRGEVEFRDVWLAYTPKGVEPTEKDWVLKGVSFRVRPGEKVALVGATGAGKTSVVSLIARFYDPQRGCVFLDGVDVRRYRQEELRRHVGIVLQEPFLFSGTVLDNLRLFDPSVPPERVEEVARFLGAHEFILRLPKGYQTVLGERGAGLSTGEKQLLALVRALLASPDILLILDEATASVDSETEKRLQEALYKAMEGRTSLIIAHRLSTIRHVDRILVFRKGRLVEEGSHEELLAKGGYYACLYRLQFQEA
Experiment: cross-linking

binding result: binds
B1: TmrB-A567C (natural protein, Thermus thermophilus, UniProt Q72J04 1-578, looked up)
chain: MTGRSAAPLLRRLWPYVGRYRWRYLWAVLAGLVSIFFFVLTPYFLRLAVDAVQAGRGFGVYALAIVASAALSGLLSYAMRRLAVVASRQVEYDLRRDLLHHLLTLDRDFYHKHRVGDLMNRLNTDLSAVREMVGPGILMGSRLSFLVLLAFLSMYAVNARLAFYLTLILPGIFLAMRFLLRLIDRRYREAQEVFDRISTLAQEAFSGIRVVKGYALERRMVAWFQDLNRLYVEKSLALARVEGPLHALLGFLMGFAFLTVLWAGGAMVVRGELSVGELVQFNAYLAQLTWPILGLGWVMALYQRGLTSLRRLFELLDEKPAIRDEDPLPLALEDLSGEVRFEGVGLKRDGRWLLRGLTLTIPEGMTLGITGRTGSGKSLLAALVPRLLDPSEGRVYVGGHEARRIPLAVLRKAVGVAPQEPFLFSETILENIAFGLDEVDRERVEWAARLAGIHEEILAFPKGYETVLGERGITLSGGQRQRVALARALAKRPKILILDDALSAVDAETEARILQGLKTVLGKQTTLLISHRTAALRHADWIIVLDGGRIVEEGTHESLLQAGGLYCEMDRLQKEVEA
